# Ends that are not written are not given here.
# B1: Mouse Vgll1 (26-51) peptide probe, carboxyfluorescein-labelled (peptide, UniProt Q99NC0 26-51, looked up)
# peptide: GSVIFTYFEGDINSMVDEHFSRALRN
# modifications: also: carboxyfluorescein label, position not given here
# notes: mouse Vgll1 residues 26-51; also called Vgll1 peptide probe
# B2: Human YAP (61-100) peptide probe, carboxyfluorescein-labelled (peptide, UniProt P46937 61-100, looked up)
# peptide: SETDLEALFNAVMNPKTANVPQTVPMRLRKLPDSFFKPPE
# modifications: carboxyfluorescein label (position not given)
# notes: human YAP (Yes-associated protein) residues 61-100; also called YAP peptide probe
# B3: Human TAZ (23-57) peptide probe, carboxyfluorescein-labelled (peptide, UniProt Q9GZV5 23-57, looked up)
# peptide: DLDTDLEALFNSVMNPKPSSWRKKILPESFFKEPD
# modifications: carboxyfluorescein label (position not given)
# notes: human TAZ residues 23-57, UniProt Q9GZV5; also called TAZ peptide probe; TAZ probe
# Columns and labels:
# Test in all cases: fluorescence polarisation; TEAD4 (217-434) at 350 nM, carboxyfluorescein peptide probe at 25 nM; disruptors titrated 0-150 uM to the probe-TEAD complex; 25 C, 20 min
# Conditions in all cases: both partners purified
# [1] = target: YAP/TAZ-binding domain of human TEAD4 (217-434), acylation state not stated (human, UniProt Q15561 217-434)
# Sequence of YAP/TAZ-binding domain of human TEAD4 (217-434), acylation state not stated (Q15561 217-434): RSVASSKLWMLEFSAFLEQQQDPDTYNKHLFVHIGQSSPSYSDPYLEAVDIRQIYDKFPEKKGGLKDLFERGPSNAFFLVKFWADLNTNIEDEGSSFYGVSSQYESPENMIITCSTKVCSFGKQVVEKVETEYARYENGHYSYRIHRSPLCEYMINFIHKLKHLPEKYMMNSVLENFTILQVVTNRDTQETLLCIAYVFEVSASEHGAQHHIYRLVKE
# [2] = target: T1, YAP/TAZ-binding domain of human TEAD4 (217-434), deacylated form (human, UniProt Q15561 217-434)
# T1 construct: also called deacylated TEAD
# T1 sequence (Q15561 217-434): as above
# [3] = target: T2, YAP/TAZ-binding domain of human TEAD4 (217-434), acylated form (human, UniProt Q15561 217-434, acylated)
# T2 construct: also called acylated TEAD
# T2 sequence (Q15561 217-434): as above
Binder,binding result [1],binding result [2],binding result [3]
B1,binds,,
B2,binds,,
B3,,binds,binds

# — article PMC9007350, “Aurintricarboxylic acid is a canonical disruptor of the TAZ-TEAD transcriptional complex” (PLoS ONE, 2022)
